Results reported in patent US20230279123A1 (REGENECORE BIOTECH, published 2023).
Positions count from the first letter of the chain named.

How the values were obtained:
IL-4Rα (on TF-1 cells) [1] = biological target: T1, IL-4Rα (on TF-1 cells) (UniProt P24394 26-825, limits assumed); experiment: cell-based or functional assay
IL-5 [2] = biological target: T2, IL-5 (human, UniProt P05113 20-134); experiment: cell-based or functional assay
IL-5 [3] = biological target: T2, IL-5; experiment: competition ELISA: IL-5R coated, biotin-IL-5 at EC80 mixed with antibody dilutions, OD450
Protocol: (§1) (3) A biotin-conjugated ligand protein (IL-4 or IL-5) was diluted to 2 times the EC80 concentration, and the antibody was diluted to 2 times the initial concentration, and 5-fold gradient dilution was carried out. The ligand protein, and the diluted antibody (dupilumab, 4E9V10-2B3V2, 4E9-V0 or 2B3 (SEQ ID NO. 25)) and hIgG respectively, were transferred at 1:1 into a new dispensing plate and mixed well.
(§2) (7) A stopping solution was added, and the values of samples in different wells were immediately read at the wavelength of 450 nm with a microplate reader and recorded as OD450. EC50 was calculated by plotting. 4E9-V0, non-humanized anti-[…] single domain antibody 2B3, dupilumab, reslizumab, and hIgG were used as controls, and the results are shown in Tables 6 and 7 and FIGS. 5 and 6, respectively.

[4] = biological target: T3, IL-4Rα (receptor protein / antigen) (UniProt P24394 26-232, limits assumed); experiment: competition ELISA: IL-4Rα coated, biotin-IL-4 at EC80 mixed with antibody dilutions, OD450
T3 construct: also called IL-4 receptor subunit α
Protocol: as §1, §2

IL-4Rα (on TF-1 cells) [5] = biological target: T1, IL-4Rα (on TF-1 cells); experiment: cell-based or functional assay; remark: listed apart in the source
[6] = biological target: T3, IL-4Rα (receptor protein / antigen); experiment: BLI (Octet 96), antibody loaded on sensor, antigen in solution
Protocol: (§3) Assay steps: Octet 96 and Data Acquisition software in the supporting computer were run. The bottom and sides of an acquisition probe were cleaned using a lens tissue with an appropriate amount of 75% ethanol, and the instrument was preheated for 15 min or more. Sensor pre-wetting: before the assay, the Sensor was soaked in the SD buffer for 10 min or more for later use. Then, the machine procedure was set according to: baseline→antibody→baseline→antigen binding→antigen dissociation→sensor regeneration for assay operation.

[7] = biological target: T3, IL-4Rα (receptor protein / antigen); experiment: BLI (Octet 96), antibody loaded on sensor, antigen 200 nM and 2-fold dilutions in solution
Protocol: as §3

IL-4Rα (on TF-1 cells) [8] = biological target: T1, IL-4Rα (on TF-1 cells); experiment: cell-based or functional assay; remark: listed apart in the source
IL-4Rα (on TF-1 cells) [9] = biological target: T1, IL-4Rα (on TF-1 cells); experiment: cell-based or functional assay; remark: listed apart in the source

T2 sequence (P05113 20-134 limits assumed): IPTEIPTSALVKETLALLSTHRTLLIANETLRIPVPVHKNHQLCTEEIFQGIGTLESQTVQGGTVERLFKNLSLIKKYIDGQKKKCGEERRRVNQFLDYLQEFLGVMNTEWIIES

B1: humanized anti-IL-4Rα single domain antibody 4E9-V11 (VHH)
VHH: QVQLVESGGGLVQPGGSLRLSCAASGDFYCMAWFRQAPGKEREAVAIRSGGRSTYYADSVKGRFTISRDNSKNTLYLQMNSLKAEDTAVYYCAVGVDGNCRNYWGQGTLVTVSS
EC50 of neutralizing IL-4-induced TF-1 proliferation (IL-4Rα (on TF-1 cells) [1]): 1880 µM

B2: humanized anti-IL-4Rα single domain antibody 4E9-V7 (VHH)
VHH: B1 VHH with Y56L
EC50 of neutralizing IL-4-induced TF-1 proliferation (IL-4Rα (on TF-1 cells) [1]): 0.185 µM

B3: reslizumab (antibody, V domains shown)
VH: EVQLVESGGGLVQPGGSLRLSCAVSGLSLTSNSVNWIRQAPGKGLEWVGLIWSNGDTDYNSAIKSRFTISRDTSKSTVYLQMNSLRAEDTAVYYCAREYYGYFDYWGQGTLVTVSS
VL: DIQMTQSPSSLSASVGDRVTITCLASEGISSYLAWYQQKPGKAPKLLIYGANSLQTGVPSRFSGSGSATDYTLTISSLQPEDFATYYCQQSYKFPNTFGQGTKVEVK
EC50 of neutralizing IL-5-induced TF-1 cell proliferation (IL-5 [2]): 0.000122 µM | EC50 (IL-5 [3]): 0.00621 µM

B4: dupilumab (antibody, V domains shown)
VH: EVQLVESGGGLEQPGGSLRLSCAGSGFTFRDYAMTWVRQAPGKGLEWVSSISGSGGNTYYADSVKGRFTISRDNSKNTLYLQMNSLRAEDTAVYYCAKDRLSITIRPRYYGLDVWGQGTTVTVSS
VL: DIVMTQSPLSLPVTPGEPASISCRSSQSLLYSIGYNYLDWYLQKSGQSPQLLIYLGSNRASGVPDRFSGSGSGTDFTLKISRVEAEDVGFYYCMQALQTPYTFGQGTKLEIKR
EC50 [4]: 0.00432 µM

B5: humanized anti-IL-4Rα single domain antibody 4E9-V6 (VHH)
VHH: QVQLVESGGGLVQPGGSLRLSCAASGDFYCMAWFRQAPGKEREAVATIRSGGRSTYYADSVKGRFTISRDNSKNTLYLQMNSLKAEDTAVYYCAVGVDGNCRNYWGQGTLVTVSS
EC50 of neutralizing IL-4-induced TF-1 proliferation (IL-4Rα (on TF-1 cells) [1]): 0.000707 µM | EC50 of neutralizing IL-13-induced TF-1 proliferation (IL-4Rα (on TF-1 cells) [5]): 0.000759 µM | Kd [6]: 0.00305 µM | koff [6]: 0.000506 s⁻¹ | kon [6]: 166000 M⁻¹ s⁻¹

B6: humanized anti-IL-4Rα single domain antibody 4E9-V5 (VHH)
VHH: B5 VHH with M31L, A32G, K40Q, E41G, R42L, T47A, K84R, G99A
EC50 of neutralizing IL-4-induced TF-1 proliferation (IL-4Rα (on TF-1 cells) [1]): 0.000746 µM

B7: humanized anti-IL-4Rα single domain antibody 4E9-V8 (VHH)
VHH: B5 VHH with A44R, T47K, Y57L
EC50 of neutralizing IL-4-induced TF-1 proliferation (IL-4Rα (on TF-1 cells) [1]): 0.00277 µM | EC50 of neutralizing IL-13-induced TF-1 proliferation (IL-4Rα (on TF-1 cells) [5]): 0.00311 µM

B8: humanized anti-IL-4Rα single domain antibody 4E9-V3 (VHH)
VHH: B5 VHH with M31L, A32G, K40Q, T47A
EC50 of neutralizing IL-4-induced TF-1 proliferation (IL-4Rα (on TF-1 cells) [1]): 0.0138 µM

B9: humanized anti-IL-4Rα single domain antibody 4E9-V14 (VHH)
VHH: B5 VHH with K84R
EC50 of neutralizing IL-4-induced TF-1 proliferation (IL-4Rα (on TF-1 cells) [1]): 18600 µM

B10: humanized anti-IL-4Rα single domain antibody 4E9-V2 (VHH)
VHH: B5 VHH with M31L, A32G, K40Q, T47A, K84R
EC50 of neutralizing IL-4-induced TF-1 proliferation (IL-4Rα (on TF-1 cells) [1]): 0.0521 µM

B11: humanized anti-IL-4Rα single domain antibody 4E9-V9 (VHH)
VHH: B5 VHH with A44R
EC50 of neutralizing IL-4-induced TF-1 proliferation (IL-4Rα (on TF-1 cells) [1]): 0.000752 µM

B12: humanized anti-IL-4Rα single domain antibody 4E9-V12 (VHH)
VHH: B5 VHH with Y57L
EC50 of neutralizing IL-4-induced TF-1 proliferation (IL-4Rα (on TF-1 cells) [1]): 0.00203 µM | EC50 of neutralizing IL-13-induced TF-1 proliferation (IL-4Rα (on TF-1 cells) [5]): 0.00211 µM | Kd [6]: 0.0093 µM | koff [6]: 0.000268 s⁻¹ | kon [6]: 28800 M⁻¹ s⁻¹

B13: humanized anti-IL-4Rα single domain antibody 4E9-V10 (VHH)
VHH: B5 VHH with T47A
EC50 of neutralizing IL-4-induced TF-1 proliferation (IL-4Rα (on TF-1 cells) [1]): 0.000271 µM | EC50 of neutralizing IL-13-induced TF-1 proliferation (IL-4Rα (on TF-1 cells) [5]): 0.00018 µM | koff [6]: 0.000534 s⁻¹ | kon [6]: 173000 M⁻¹ s⁻¹ | Kd [7]: 0.00308 µM

B14: humanized anti-IL-4Rα single domain antibody 4E9-V13 (VHH)
VHH: B5 VHH with L76V
EC50 of neutralizing IL-4-induced TF-1 proliferation (IL-4Rα (on TF-1 cells) [1]): 0.00452 µM | EC50 of neutralizing IL-13-induced TF-1 proliferation (IL-4Rα (on TF-1 cells) [5]): 0.0042 µM | Kd [6]: 0.00341 µM | koff [6]: 0.000565 s⁻¹ | kon [6]: 166000 M⁻¹ s⁻¹

B15: anti-IL-4Rα single domain antibody 4E9 (4E9-V0) (VHH)
VHH: B5 VHH with L11S, P14A, A44G, R69K, S72A, N74D, A85P, V90M, L110Q
notes: also called non-humanized antibody
EC50 of neutralizing IL-4-induced TF-1 cell proliferation (IL-4Rα (on TF-1 cells) [8]): 0.000281 µM | EC50 of neutralizing IL-13-induced TF-1 cell proliferation (IL-4Rα (on TF-1 cells) [9]): 0.000229 µM | EC50 [4]: 0.00445 µM

B16: non-humanized anti-IL-5 single domain antibody 2B3 (VHH)
VHH: QVQLVESGGGSVQAGGSLRLSCAASGNTFSFSTYCMGWFRQSPGKEREGSLATIYDGSTAYAGSVKGRFTISVDNAKNILYLQMNNLKPEDTAMYYCAAAKYCMFWSDPSYWGQGTQVTVSS
EC50 of neutralizing IL-5-induced TF-1 cell proliferation (IL-5 [2]): 0.000336 µM | EC50 (IL-5 [3]): 0.00691 µM
